What was measured:
[1] = target: T1, (S)-ureidoglycolate dehydrogenase (AllD) (Escherichia coli, UniProt P77555); assay: X-ray crystal structure, soaking, […] Å; assay type: binding; conditions: 100 mM NADH soak, pH 8.1; one NADH in each subunit; site includes residues of the other subunit
T1 construct: full length, modified pET28b with N-terminal His-tag and TEV site, expressed in E. coli BL21(DE3); tag cut for crystals, kept on mutant enzymes for kinetics; homodimer

[2] = target: T1, (S)-ureidoglycolate dehydrogenase (AllD); assay: X-ray crystal structure, soaking, […] Å; assay type: binding; conditions: ternary complex with NADH; soaked with 7.5 mM oxalurate reaction mixture, glyoxylate modelled in subunit A only, pH 8.1
purified protein [3] = substrate: NC(=O)N[C@@H](O)C(=O)O; assay: purified protein; assay type: biochemical, Escherichia coli; conditions: 3 mM NAD+ (saturating), 30 °C, value in parentheses is standard error
purified protein [4] = substrate: NC(=O)c1ccc[n+]([C@@H]2O[C@H](COP(=O)(O)OP(=O)(O)OC[C@H]3O[C@@H](n4cnc5c(N)ncnc54)[C@H](O)[C@@H]3O)[C@@H](O)[C@H]2O)c1; assay: purified protein; assay type: biochemical, Escherichia coli; conditions: 15.3 mM (S)-ureidoglycolate, 30 °C, value in parentheses is standard error
[5] = target: the molecule itself; assay: SEC; size-exclusion chromatography of AllD; conditions not described

## NC(=O)C1=CN([C@@H]2O[C@H](COP(=O)(O)OP(=O)(O)OC[C@H]3O[C@@H](n4cnc5c(N)ncnc54)[C@H](O)[C@@H]3O)[C@@H](O)[C@H]2O)C=CC1 [NADH]
[1]
  X-ray crystal structure, soaking, 1.64 Å: 4H8A for the AllD-NADH binary complex

## O=CC(=O)O [glyoxylate]
[2]
  X-ray crystal structure, soaking, 1.77 Å: 4FJU for the AllD-NADH-glyoxylate ternary complex

B1: (S)-ureidoglycolate dehydrogenase (AllD) (Escherichia coli K-12; Y52F) (protein)
chain: MKISRETLHQLIENKLCQAGLKREHAATVAEVLVYADARGIHSHGAVRVEYFAERISKGGTNREPEFRLEETGPCSAILHADNAAGQVAAKMGMEHAIKTAQQNGVAVVGISRMGHSGAISYFVQQAARAGFIGISMCQSDPMVVPFGGAEIYYGTNPLAFAAPGEGDEILTFDMATTVQAWGKVLDARSRNMSIPDTWAVDKNGVPTTDPFAVHALLPAAGPKGYGLMMMIDVLSGVLLGLPFGRQVSSMYDDLHAGRNLGQLHIVINPNFFSSSELFRQHLSQTMRELNAITPAPGFNQVYYPGQDQDIKQRKAAVEGIEIVDDIYQYLISDALYNTSYETKNPFAQ
notes: full length, modified pET28b with N-terminal His-tag and TEV site, expressed in E. coli BL21(DE3); tag cut for crystals, kept on mutant enzymes for kinetics; homodimer
Purified protein [3]; His-tag kept
  Km: 16.82 (3.92) mM
  kcat: 1.92 s⁻¹
  kcat/Km: 110 M⁻¹ s⁻¹

B2: (S)-ureidoglycolate dehydrogenase (AllD) (Escherichia coli K-12; S140A) (protein)
chain: MKISRETLHQLIENKLCQAGLKREHAATVAEVLVYADARGIHSHGAVRVEYYAERISKGGTNREPEFRLEETGPCSAILHADNAAGQVAAKMGMEHAIKTAQQNGVAVVGISRMGHSGAISYFVQQAARAGFIGISMCQADPMVVPFGGAEIYYGTNPLAFAAPGEGDEILTFDMATTVQAWGKVLDARSRNMSIPDTWAVDKNGVPTTDPFAVHALLPAAGPKGYGLMMMIDVLSGVLLGLPFGRQVSSMYDDLHAGRNLGQLHIVINPNFFSSSELFRQHLSQTMRELNAITPAPGFNQVYYPGQDQDIKQRKAAVEGIEIVDDIYQYLISDALYNTSYETKNPFAQ
notes: as for B1
Purified protein [3]; His-tag kept
  Km: 12.38 (2.19) mM
  kcat: 1.29 s⁻¹
  kcat/Km: 100 M⁻¹ s⁻¹

B3: (S)-ureidoglycolate dehydrogenase (AllD) (Escherichia coli K-12; D141A) (protein)
chain: MKISRETLHQLIENKLCQAGLKREHAATVAEVLVYADARGIHSHGAVRVEYYAERISKGGTNREPEFRLEETGPCSAILHADNAAGQVAAKMGMEHAIKTAQQNGVAVVGISRMGHSGAISYFVQQAARAGFIGISMCQSAPMVVPFGGAEIYYGTNPLAFAAPGEGDEILTFDMATTVQAWGKVLDARSRNMSIPDTWAVDKNGVPTTDPFAVHALLPAAGPKGYGLMMMIDVLSGVLLGLPFGRQVSSMYDDLHAGRNLGQLHIVINPNFFSSSELFRQHLSQTMRELNAITPAPGFNQVYYPGQDQDIKQRKAAVEGIEIVDDIYQYLISDALYNTSYETKNPFAQ
notes: as for B1
Purified protein [3]; His-tag kept
  Km: 5.27 (0.46) mM
  kcat: 1.62 s⁻¹
  kcat/Km: 310 M⁻¹ s⁻¹

B4: (S)-ureidoglycolate dehydrogenase (AllD) (Escherichia coli K-12; D141N) (protein)
chain: MKISRETLHQLIENKLCQAGLKREHAATVAEVLVYADARGIHSHGAVRVEYYAERISKGGTNREPEFRLEETGPCSAILHADNAAGQVAAKMGMEHAIKTAQQNGVAVVGISRMGHSGAISYFVQQAARAGFIGISMCQSNPMVVPFGGAEIYYGTNPLAFAAPGEGDEILTFDMATTVQAWGKVLDARSRNMSIPDTWAVDKNGVPTTDPFAVHALLPAAGPKGYGLMMMIDVLSGVLLGLPFGRQVSSMYDDLHAGRNLGQLHIVINPNFFSSSELFRQHLSQTMRELNAITPAPGFNQVYYPGQDQDIKQRKAAVEGIEIVDDIYQYLISDALYNTSYETKNPFAQ
notes: as for B1
Purified protein [3]; His-tag kept
  Km: 5.84 (0.25) mM
  kcat: 1.97 s⁻¹
  kcat/Km: 340 M⁻¹ s⁻¹

B5: (S)-ureidoglycolate dehydrogenase (AllD) (Escherichia coli K-12; D141E) (protein)
chain: MKISRETLHQLIENKLCQAGLKREHAATVAEVLVYADARGIHSHGAVRVEYYAERISKGGTNREPEFRLEETGPCSAILHADNAAGQVAAKMGMEHAIKTAQQNGVAVVGISRMGHSGAISYFVQQAARAGFIGISMCQSEPMVVPFGGAEIYYGTNPLAFAAPGEGDEILTFDMATTVQAWGKVLDARSRNMSIPDTWAVDKNGVPTTDPFAVHALLPAAGPKGYGLMMMIDVLSGVLLGLPFGRQVSSMYDDLHAGRNLGQLHIVINPNFFSSSELFRQHLSQTMRELNAITPAPGFNQVYYPGQDQDIKQRKAAVEGIEIVDDIYQYLISDALYNTSYETKNPFAQ
notes: as for B1
Purified protein [3]; His-tag kept
  Km: 14.13 (2.37) mM
  kcat: 1.67 s⁻¹
  kcat/Km: 120 M⁻¹ s⁻¹

B6: (S)-ureidoglycolate dehydrogenase (AllD) (Escherichia coli K-12; M251A) (protein)
chain: MKISRETLHQLIENKLCQAGLKREHAATVAEVLVYADARGIHSHGAVRVEYYAERISKGGTNREPEFRLEETGPCSAILHADNAAGQVAAKMGMEHAIKTAQQNGVAVVGISRMGHSGAISYFVQQAARAGFIGISMCQSDPMVVPFGGAEIYYGTNPLAFAAPGEGDEILTFDMATTVQAWGKVLDARSRNMSIPDTWAVDKNGVPTTDPFAVHALLPAAGPKGYGLMMMIDVLSGVLLGLPFGRQVSSAYDDLHAGRNLGQLHIVINPNFFSSSELFRQHLSQTMRELNAITPAPGFNQVYYPGQDQDIKQRKAAVEGIEIVDDIYQYLISDALYNTSYETKNPFAQ
notes: as for B1
Purified protein [3]; His-tag kept
  Km: 13.15 (1.62) mM
  kcat: 46 s⁻¹
  kcat/Km: 3490 M⁻¹ s⁻¹

B7: (S)-ureidoglycolate dehydrogenase (AllD) (Escherichia coli K-12; R259A) (protein)
chain: MKISRETLHQLIENKLCQAGLKREHAATVAEVLVYADARGIHSHGAVRVEYYAERISKGGTNREPEFRLEETGPCSAILHADNAAGQVAAKMGMEHAIKTAQQNGVAVVGISRMGHSGAISYFVQQAARAGFIGISMCQSDPMVVPFGGAEIYYGTNPLAFAAPGEGDEILTFDMATTVQAWGKVLDARSRNMSIPDTWAVDKNGVPTTDPFAVHALLPAAGPKGYGLMMMIDVLSGVLLGLPFGRQVSSMYDDLHAGANLGQLHIVINPNFFSSSELFRQHLSQTMRELNAITPAPGFNQVYYPGQDQDIKQRKAAVEGIEIVDDIYQYLISDALYNTSYETKNPFAQ
notes: as for B1
Purified protein [3]; His-tag kept
  Km: 11.47 (1.25) mM
  kcat: 12 s⁻¹
  kcat/Km: 1040 M⁻¹ s⁻¹
Purified protein [4]; His-tag kept
  Km: 1.49 (0.07) mM
  kcat: 9.29 s⁻¹
  kcat/Km: 6230 M⁻¹ s⁻¹

B8: (S)-ureidoglycolate dehydrogenase (AllD) from Escherichia coli (enzyme, Escherichia coli str. K-12 substr. DH10b, UniProt P77555 1-349, looked up)
chain: MKISRETLHQLIENKLCQAGLKREHAATVAEVLVYADARGIHSHGAVRVEYYAERISKGGTNREPEFRLEETGPCSAILHADNAAGQVAAKMGMEHAIKTAQQNGVAVVGISRMGHSGAISYFVQQAARAGFIGISMCQSDPMVVPFGGAEIYYGTNPLAFAAPGEGDEILTFDMATTVQAWGKVLDARSRNMSIPDTWAVDKNGVPTTDPFAVHALLPAAGPKGYGLMMMIDVLSGVLLGLPFGRQVSSMYDDLHAGRNLGQLHIVINPNFFSSSELFRQHLSQTMRELNAITPAPGFNQVYYPGQDQDIKQRKAAVEGIEIVDDIYQYLISDALYNTSYETKNPFAQ
notes: (S)-ureidoglycolate dehydrogenase AllD, product of the allD gene of E. coli str; K-12 substr; DH10b; ordered residues in the crystals Met1 to Tyr337/Asn338 (subunit A); Homodimer; Cloned into a modified pET28b with a TEV site between the His-tag and the multicloning sites; also called EC 1.1.1.154; not shown: His-tag, N-terminal, cleaved
Purified protein [3]
  Km: 1.06 (0.08) mM
  kcat: 57.1 s⁻¹
  kcat/Km: 54300 M⁻¹ s⁻¹
Purified protein [4]
  Km: 0.56 (0.04) mM
  kcat: 62.4 s⁻¹
  kcat/Km: 110000 M⁻¹ s⁻¹
[5]
  stoichiometry N: 2

B9: (S)-ureidoglycolate dehydrogenase (AllD) (Escherichia coli K-12; S43A) (protein)
chain: MKISRETLHQLIENKLCQAGLKREHAATVAEVLVYADARGIHAHGAVRVEYYAERISKGGTNREPEFRLEETGPCSAILHADNAAGQVAAKMGMEHAIKTAQQNGVAVVGISRMGHSGAISYFVQQAARAGFIGISMCQSDPMVVPFGGAEIYYGTNPLAFAAPGEGDEILTFDMATTVQAWGKVLDARSRNMSIPDTWAVDKNGVPTTDPFAVHALLPAAGPKGYGLMMMIDVLSGVLLGLPFGRQVSSMYDDLHAGRNLGQLHIVINPNFFSSSELFRQHLSQTMRELNAITPAPGFNQVYYPGQDQDIKQRKAAVEGIEIVDDIYQYLISDALYNTSYETKNPFAQ
notes: as for B1
Purified protein [3]; His-tag kept
  Km: 10.75 (1.01) mM
  kcat: 1.37 s⁻¹
  kcat/Km: 130 M⁻¹ s⁻¹

B10: (S)-ureidoglycolate dehydrogenase (AllD) (Escherichia coli K-12; H44A) (protein)
chain: MKISRETLHQLIENKLCQAGLKREHAATVAEVLVYADARGIHSAGAVRVEYYAERISKGGTNREPEFRLEETGPCSAILHADNAAGQVAAKMGMEHAIKTAQQNGVAVVGISRMGHSGAISYFVQQAARAGFIGISMCQSDPMVVPFGGAEIYYGTNPLAFAAPGEGDEILTFDMATTVQAWGKVLDARSRNMSIPDTWAVDKNGVPTTDPFAVHALLPAAGPKGYGLMMMIDVLSGVLLGLPFGRQVSSMYDDLHAGRNLGQLHIVINPNFFSSSELFRQHLSQTMRELNAITPAPGFNQVYYPGQDQDIKQRKAAVEGIEIVDDIYQYLISDALYNTSYETKNPFAQ
notes: as for B1
Purified protein [3]; His-tag kept
  Km: 16.94 (2.04) mM
  kcat: 1.76 s⁻¹
  kcat/Km: 100 M⁻¹ s⁻¹

From PMC3527362, “Structural and Functional Insights into (S)-Ureidoglycolate Dehydrogenase, a Metabolic Branch Point Enzyme in Nitrogen Utilization” (PLoS ONE, 2012)
